Laboratory results: US20090325259A1, “USE OF ADHESION MOLECULES AS BOND STRESS-ENHANCED NANOSCALE BINDING SWITCHES” (priority 2002, published 2009)

Tests used:
[1] = target: Monomannosylated BSA (monomannose conjugated to bovine serum albumin) (bovine) (UniProt P02769)
[2] = target: Monomannosylated BSA (monomannose conjugated to bovine serum albumin) (bovine) (UniProt P02769); experiment: parallel plate flow chamber; new bacteria appearing on 1Man-BSA surface

Chain of Monomannosylated BSA (monomannose conjugated to bovine serum albumin) (bovine) (P02769 25-607 limits assumed): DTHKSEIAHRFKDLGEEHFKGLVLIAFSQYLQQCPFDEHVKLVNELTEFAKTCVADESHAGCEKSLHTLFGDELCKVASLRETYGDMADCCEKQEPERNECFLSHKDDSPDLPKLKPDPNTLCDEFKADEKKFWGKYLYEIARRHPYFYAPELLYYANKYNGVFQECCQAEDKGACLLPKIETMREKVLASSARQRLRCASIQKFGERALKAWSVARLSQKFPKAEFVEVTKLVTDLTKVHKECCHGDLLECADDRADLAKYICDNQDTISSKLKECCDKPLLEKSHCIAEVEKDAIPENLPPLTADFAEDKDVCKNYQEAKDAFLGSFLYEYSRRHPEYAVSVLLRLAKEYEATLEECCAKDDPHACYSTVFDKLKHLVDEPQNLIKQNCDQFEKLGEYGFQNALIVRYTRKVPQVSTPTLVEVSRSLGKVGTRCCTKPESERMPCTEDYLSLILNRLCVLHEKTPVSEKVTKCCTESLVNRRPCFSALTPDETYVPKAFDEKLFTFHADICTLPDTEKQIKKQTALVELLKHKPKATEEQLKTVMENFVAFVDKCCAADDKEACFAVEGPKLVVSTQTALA

**Q.** “FimH-f18 (FimH adhesin variant of intestinal E. coli strain F18), in type I fimbriae on recombinant E. coli (from UniProt P08191 22-300)” was tested. Which first-order rate constant of the decline of stationary bacteria [1] did it give?
**A.** 3 s⁻¹

**Q.** And the initial attachments per minute in the field of view, at 0.5 dynes/cm^2 (attachments per minute) [2]?
**A.** 102

**Q.** And the initial attachments per minute in the field of view, at 3.6 dynes/cm^2 (attachments per minute) [2]?
**A.** 64

**Q.** What about the initial attachments per minute in the field of view, at 7 dynes/cm^2 (attachments per minute) [2] of the same substance?
**A.** 32
